Key:
HLA-A*30:01 = assay: IEDB peptide-MHC binding, purified MHC/competitive/radioactivity; filed as Kd, often an IC50 or EC50 that approximates it; ≥ and ≤ were set here for values at or beyond the usual limits of such assays; details: source organism: Vaccinia virus WR
HLA-A*32:01 = assay: as above
HLA-B*08:01 = assay: as above; details: source organism: Vaccinia virus WR
HLA-B*15:01 [1] = assay: as above; details: source organism: Vaccinia virus WR
HLA-B*15:03 = assay: as above
HLA-B*53:01 = assay: as above
HLA-B*07:02 = assay: as above
HLA-B*51:01 [2] = assay: as above
HLA-B*44:02 = assay: as above
HLA-B*44:03 = assay: as above
HLA-A*02:01 = assay: as above
HLA-B*51:01 [3] = assay: IEDB peptide-MHC binding, purified MHC/competitive/fluorescence; filed as Kd, often an IC50 or EC50 that approximates it; ≥ and ≤ were set here for values at or beyond the usual limits of such assays; details: source organism: Salmonella enterica subsp. enterica serovar Typhi
HLA-B*18:01 = assay: IEDB peptide-MHC binding, purified MHC/competitive/radioactivity; filed as Kd, often an IC50 or EC50 that approximates it; ≥ and ≤ were set here for values at or beyond the usual limits of such assays
HLA-B*40:01 = assay: as above
HLA-B*40:02 = assay: as above
HLA-B*45:01 = assay: as above
HLA-B*15:01 [4] = assay: IEDB peptide-MHC binding, purified MHC/competitive/fluorescence; filed as Kd, often an IC50 or EC50 that approximates it; ≥ and ≤ were set here for values at or beyond the usual limits of such assays; details: source organism: Yersinia pestis Angola
HLA-A*24:03 = assay: IEDB peptide-MHC binding, purified MHC/direct/fluorescence; filed as Kd, often an IC50 or EC50 that approximates it; ≥ and ≤ were set here for values at or beyond the usual limits of such assays; details: source organism: Giardia lamblia ATCC 50803
[5] = source organism: Vaccinia virus WR
[6] = source organism: Dengue virus 3 Sri Lanka/1266/2000
[7] = source organism: Dengue virus 2 Jamaica/1409/1983
[8] = source organism: Dengue virus 1 Singapore/S275/1990
[9] = source organism: Dengue virus 1 Brazil/97-11/1997
[10] = source organism: Mammarenavirus machupoense
[11] = source organism: Mammarenavirus lassaense
[12] = source organism: SARS coronavirus Tor2
[13] = source organism: Vaccinia virus Copenhagen
[14] = source organism: Dengue virus 4 Philippines/H241/1956

For LIRNKRLSL, the Kd (HLA-A*30:01) was 696 nM, the Kd (HLA-A*32:01; [5]) was ≥ 77800 nM and the Kd (HLA-B*08:01) was 0.783 nM. The Kd (HLA-B*15:01 [1]) was 455 nM and the Kd (HLA-B*15:03; [5]) was 215 nM.
LPETMETLL showed a Kd (HLA-B*53:01; source organism: Dengue virus 3 Martinique/1243/1999) of 3580 nM.
Sequence LPMTVAAMGV has a Kd (HLA-B*07:02; [6]) of 50.7 nM and a Kd (HLA-B*51:01 [2]; [6]) of 633 nM.
With LPVWLAYRV the Kd (HLA-B*51:01 [2]; [7]) was 130 nM and the Kd (HLA-B*53:01; [7]) was 200 nM.
In the case of MEVTARWLW, the Kd (HLA-B*44:02; [8]) is reported as 2.1 nM, the Kd (HLA-B*44:03; [8]) is reported as 10.9 nM and the Kd (HLA-B*53:01; [8]) is reported as 804 nM.
With MIEEVMRSRW the Kd (HLA-B*53:01; [9]) was 166 nM.
For MIKIALSVA, the Kd (HLA-A*30:01) was 1270 nM, the Kd (HLA-A*32:01; [5]) was 4690 nM and the Kd (HLA-B*08:01) was 535 nM. For the same sequence, the Kd (HLA-B*15:01 [1]) was 2780 nM and the Kd (HLA-B*15:03; [5]) was 559 nM.
Work on MKSLAMTAF yielded a Kd (HLA-B*15:03; [5]) of 0.182 nM.
For MTSYQYLII, the Kd (HLA-A*02:01; source organism: Lassa virus Josiah) was 926 nM.
NPLWPFETV gave a Kd (HLA-B*51:01 [3]) of 229 nM.
With QPMEHKYSW the Kd (HLA-B*07:02; [9]) was 141 nM and the Kd (HLA-B*53:01; [9]) was 57.8 nM.
For RAAGLQDCTML, the Kd (HLA-A*02:01; source organism: Hepatitis C virus (isolate 1)) was ≥ 50000 nM.
RELLKSLSGL was tested, and the Kd (HLA-B*18:01; [10]) was ≥ 70400 nM, the Kd (HLA-B*40:01; [10]) was 877 nM and the Kd (HLA-B*40:02; [10]) was 61.2 nM. The Kd (HLA-B*44:02; [10]) was ≥ 22500 nM, the Kd (HLA-B*44:03; [10]) was ≥ 23300 nM and the Kd (HLA-B*45:01; [10]) was ≥ 70000 nM.
For REVGDTSSDL, the Kd (HLA-B*18:01; [11]) was ≥ 70400 nM, the Kd (HLA-B*40:01; [11]) was 11500 nM and the Kd (HLA-B*40:02; [11]) was 1360 nM. The Kd (HLA-B*44:02; [11]) was ≥ 24500 nM, the Kd (HLA-B*44:03; [11]) was ≥ 24800 nM and the Kd (HLA-B*45:01; [11]) was ≥ 70000 nM.
For RIYHEFLSL, the Kd (HLA-B*15:01 [4]) was 97.5 nM.
For RLNPEVSYF, the Kd (HLA-B*15:01 [1]) was 0.304 nM and the Kd (HLA-B*15:03; [5]) was 0.32 nM.
RLQPNQPPK was tested, and the Kd (HLA-A*30:01) was 145 nM, the Kd (HLA-A*32:01; [5]) was 1520 nM and the Kd (HLA-B*08:01) was 1010 nM. For the same sequence, the Kd (HLA-B*15:01 [1]) was 934 nM and the Kd (HLA-B*15:03; [5]) was 298 nM.
For RSHIRKPPS, the Kd (HLA-A*30:01) was 82.1 nM, the Kd (HLA-A*32:01; [5]) was ≥ 77800 nM and the Kd (HLA-B*08:01) was 3330 nM. The Kd (HLA-B*15:01 [1]) was 11000 nM and the Kd (HLA-B*15:03; [5]) was ≥ 23100 nM.
In the case of SEETGTLIV, the Kd (HLA-B*18:01; [12]) is reported as ≥ 50500 nM, the Kd (HLA-B*40:01; [12]) is reported as 1930 nM and the Kd (HLA-B*40:02; [12]) is reported as 7260 nM. The Kd (HLA-B*44:02; [12]) was ≥ 50100 nM, the Kd (HLA-B*44:03; [12]) was ≥ 27600 nM and the Kd (HLA-B*45:01; [12]) was 121 nM.
For SELVIGAVII, the Kd (HLA-B*18:01; [12]) was ≥ 47200 nM, the Kd (HLA-B*40:01; [12]) was 684 nM and the Kd (HLA-B*40:02; [12]) was 1180 nM. It also gave a Kd (HLA-B*44:02; [12]) of 1690 nM, a Kd (HLA-B*44:03; [12]) of 827 nM and a Kd (HLA-B*45:01; [12]) of 1900 nM.
For SMWYIPNVF, the Kd (HLA-A*32:01; [13]) was 5.1 nM and the Kd (HLA-B*15:03; [13]) was 0.722 nM.
Work on SMYPSYIEF yielded a Kd (HLA-B*15:03; [5]) of 0.11 nM.
For SPIEDIEREI, the Kd (HLA-B*07:02; [14]) was 5450 nM, the Kd (HLA-B*51:01 [2]; [14]) was ≥ 22000 nM and the Kd (HLA-B*53:01; [14]) was 411 nM.
With SSKVFLKAF the Kd (HLA-A*30:01) was 2410 nM, the Kd (HLA-A*32:01; [5]) was 7020 nM and the Kd (HLA-B*08:01) was 728 nM. It also gave a Kd (HLA-B*15:01 [1]) of 1.7 nM and a Kd (HLA-B*15:03; [5]) of 0.369 nM.
With TEKSNVVRG the Kd (HLA-B*18:01; [12]) was ≥ 77500 nM, the Kd (HLA-B*40:01; [12]) was ≥ 42700 nM and the Kd (HLA-B*40:02; [12]) was ≥ 50300 nM. For the same sequence, the Kd (HLA-B*44:02; [12]) was 11900 nM, the Kd (HLA-B*44:03; [12]) was ≥ 78200 nM and the Kd (HLA-B*45:01; [12]) was ≥ 31800 nM.
For TEQFLCYAL, the Kd (HLA-B*18:01; [10]) was 21 nM, the Kd (HLA-B*40:01; [10]) was 10600 nM and the Kd (HLA-B*40:02; [10]) was 8.88 nM. The Kd (HLA-B*44:02; [10]) was 143 nM, the Kd (HLA-B*44:03; [10]) was 1500 nM and the Kd (HLA-B*45:01; [10]) was 26.6 nM.
TVQKDGMYF gave a Kd (HLA-A*24:03) of 460 nM.
For VGVNHSNTF, the Kd (HLA-B*15:03; [5]) was 80.6 nM.
With YECLYRNRDV the Kd (HLA-B*18:01; [12]) was ≥ 70500 nM, the Kd (HLA-B*40:01; [12]) was 2410 nM and the Kd (HLA-B*40:02; [12]) was 1720 nM. For the same sequence, the Kd (HLA-B*44:02; [12]) was 5550 nM, the Kd (HLA-B*44:03; [12]) was 10300 nM and the Kd (HLA-B*45:01; [12]) was 2510 nM.
YEQYIKWPWY showed a Kd (HLA-B*18:01; [12]) of 79.3 nM, a Kd (HLA-B*40:01; [12]) of 1220 nM and a Kd (HLA-B*40:02; [12]) of 7600 nM. For the same sequence, the Kd (HLA-B*44:02; [12]) was 41.6 nM, the Kd (HLA-B*44:03; [12]) was 119 nM and the Kd (HLA-B*45:01; [12]) was 518 nM.
Sequence YKFSCGLSL has a Kd (HLA-B*15:03; [5]) of 0.132 nM.
